Experimental data: a protein production outcome set (Wang et al. 2014)

Test: label from the status in PepcDB records

STMEKSVLGGQDQLRVRVTELEDEVRNLRKINRDLFDFSTRFITRPAK
protein production: not failed

MSLEKQIESYYQEIAQLIIDMIPEEWAEVRFYAQEDHDGWKIFFFHYLSASSDEWTKDIDIRDVIKVPQDEFMEKYNELSFCISDFRKDYAEAFGEPWMSFQMTFYASGKFNIDFYYDKNPFDTFLTRLAWQYEHFGTIPEDSFYKETLNEYLEEKAQGKRYPFLEPLKEEEGHHHHHH
protein production: not failed

MQTQVLFEHPLNEKMRTWLRIEFLIQQLTVNLPIVDHAGALHFFRNVSELLDVFERGEVRTELLKELDRQQRKLQTWIGVPGVDQSRIEALIQQLKAAGSVLISAPRIGQFLREDRLIALVRQRLSIPGGCCSFDLPTLHIWLHLPQAQRDCQVETWIASLNPLTQALTMVLDLIRQSAPFRKQTSLNGFYQDNGGDADLLRLNLSLDSQLYPQISGHKSRFAIRFMPLDTENGQVPERLDFELACC
protein production: not failed

MRRAEIPMNPLINHPAILFVVMLVVMSSATALGALVLRRIRPLPAEVKDDFGIVQGATLTLLALLIGFTLSMAVGRYDQRKNLEEEEANAIGTEYLRADLIEGPEAEQVKALLVRYLDQRILYYRTRDSAQLQEIEAATSQIEDEMWKLMRSAARAKPTPITGLVVSGMNDVINSQGYAEAAWINRIPVSAWGLMIVIAFFSSMMQGYGARSENAKIILMLVLPFTVSLSLALISDIDSPRGGLIRVLPQNLLSLQASLKR
protein production: failed

MCDYDEPLYLISVVAKILGVHPQTLRQYEKEGLIEPSRTDGKMRLYSQRDMDKIKTILRLTRDMGVNLAGVDIILRLKEKLDELDNLNKELQDALHKHSKNTKTPTKNLNTPTNFYELILFKK
protein production: failed

SLETVQLRNPPRRQLKKLDEDSLTKQPEEVFDVLEKLGEGSYGSVYKAIHKETGQIVAIKQVPVESDLQEIIKEISIMQQCDSPHVVKYYGSYFKNTDLWIVMEYCGAGSVSDIIRLRNKTLTEDEIATILQSTLKGLEYLHFMRKIHRDIKAGNILLNTEGHAKLADFGVAGQLTDTMAKRNTVIGTPFWMAPEVIQEIGYNCVADIWSLGITAIEMAEGKPPYADIHPMRAIFMIPTNPPPTFRKPELWSDNFTDFVKQCLVKSPEQRATATQLLQHPFVRSAKGVSILRDLINEAMDVKLKRQESQQREEG
protein production: not failed

MDIAELINHPELLLLVLAPLFFVCILLEWYLGDRRQKLPVSARYHAKEVLCNFSLAAMHQGTDILAGLLIAKLYLAIFGWKLFDIQMGPFTFVLLMVAQDFCYYWFHRASHRIRWMWAAHVVHHSSENMNFSTAFRQSLMYPFAGMWVFWLPLVILGFDPNWVVFVVLLSLGLQFFVHTQAVRKLGPLEWLFNTPSHHRVHHGRNPQYIDKNYAGILIIWDKLFGTFVPEEETVIYGITKPVNSFNPLKVTFSEWHDMFREVTTKGLSLSKRLGILFAPPASYQKDD
protein production: failed

MIRFTMMPGEDGDCLLLEYGDGTFLRRILLDGGRSGTYPRIRPTLAGLDGLVDVLVVTHVDQDHLLGVLALLNDPDRSVEFGDVWFNGFDHLLEFEGFGAQDGEKLTSALVEQKLPWNDAFGGLSVEVGRELVWFDDGSTVDVLSPDRGQLESLAPDWVKECAKHGLIPGRDPDEIPLVPGFEHFGGVNVEELAARPFRPDTSKTNLTSIGLLFEFEGKRIILTGDADDRRLVRSIRPRAEAEGGRLHVDVLKVAHHGSDHNLSKDLLDLIDCDRYLISTSGARHDHPNAIAVARILKHGGAKKEIVFNYRDRAAIWDVDSLKDRFGYTVTAPAPDAEDGFVSFEL
protein production: failed

MRMSRIQARLLQAIVRPALKTNLLKHAAWRVVLKLRNEFAHAVPPVELETTFDENIRILTSLSDHIESQVFWQGFQEADEGVILLLKRFLPSDGSFIDVGANIGTFTLVAAHRAVRGQVHAFEPSAHHFARLAHNVELNDFKNVALNRKGLYDQPGEAVLFLPSQTGEMNNSGAASLYTSALEETRQVSEAVSLIRLDDYVREKSIGRVDIIKIDIEGAELKALEGARETIARFRPLVFMELDLDNLERAERSPEEVLQYWKSLNYEVSIILLTGETVPVTSPKEFGLHQNLQCRPF
protein production: failed

MNAPTVFESFSPDSGGVKTQLIIRGQNFGTDTAYLKVTVNNKRAAIVGVADDVIYAIVPARADTGYVRLFVGKDDNVEEYASQTKFIYQFKRNVTTLMGRQGQSGRDDGPYAECKLQRPWFALADKDGALFFIDEGRGQNKNGALRRAQEGWVETLVQNSSGPFQSPTCLAFNPKQDTLYISNMSYGSDIKTSFNILYVTREGGFMDVKGLCKFEKAETQGLAVHPQTGEIFFCNKSGGYIYRFNGPDYEDYEPLFQINRADKIDTRMVFNPEGTALFVVVCNRHCIYKVPYNALTHTFGEPELFAGGWDESGYVNGSGVTARFDNPRQPAFDQDGNMFVPEYGRHTIRKITPTGEVSLYAGLPGQAGFTDGLPEKARFNKPECVTVYLDNSLYVADRDNHLIRRVTVELEHHHHHH
protein production: failed

MNNLFVLLIIIALSVGSNNGSKLWPKNQLHFRNSFSRNYDVLTVHCKSKDDDLGIHTVARSYEYNFKFEDSVFGRTEFFCTLMHGVGSKYSVTFTAYKAKPAFVASTGVIKIWDALDDGIYLTDEDHDFVKIYGW
protein production: failed

MCKPPMRLLTQTGLPRSSERQIRILEIVTGNRKGKHQPKPISKPQPNISMPKIIEAIYENGVFKPLQKVNFRPGSKVRIVIQEDKKEILRKYKGVFGKAEVEELREYEGEVMLLEHHHHHH
protein production: failed

MQFLNQSLGFFNKGCFEPIDRNFITESYQALKPIEEIQNKYNKHDNDSFLNELRDSMVALYLDYELINIQKHGLDAKRSSSDEFLEIKQVSFQSQLIKEFEFKMKPIDSKEQELINLFNLKFGHFSWENYLA
protein production: failed

MRPNLLEALRAMTEGELYAALYQDPLTGVLNRRAFAGAIEEARAVALVDMDSLKWINDNLGHRAGDRALRVLADGLVRSFGADWVFRVSGDEFAVMDGDAEQLAQRLLLLRSSVPGFSFGTGSDMAEADRDMRHDKAEREKSGHRAARGLRPPWVP
protein production: failed

MKVWPVKHSPLLRQPERFIARSELQALIRNVTQNLVNIKDESGQFLLRLDDGRVIDTKGWAGWEWTHGVGLYGIYQYYQQTGDIEMRDIIDRWFADRFAEGATTKNVNTMAPFLTLAYRFEETGRMAYLPWLESWAEWAMHEMPRTEQGGMQHMTLAEENHQQMWDDTLMMTVLPLAKIGKLLNRPQYVEEATYQFLLHVQNLMDRETGLWFHGWNYEGRHNFARARWARGNSWLTMVIPDFLELVDLPEGNAVRRYLITVLDAQIAALAECQDDSGLWHTLLDDPHSYLEASATAGFAYGILKAVRKRYVGQHYAGVAEKAIRGIVQNISPQGELLQTSFGTGMGSDLDFYRQIPLTSMPYGQAMAILCLTEYLRKYF
protein production: not failed

MMEFNVAENGGGSYRPLAILRWVMVVIFVSFGMQKFTLQSAQGIAQFITNSPFISWLSIFGLRGEAYVLGVAEFAIAALLAAGSFSPVLSAVGSFMGVVTFAITWSFFFTTPGVVTWSLSSDPMAWNLTGEFLFKDIVLLCVCAVLFLASLPRSAIRLRTG
protein production: failed

MNRSANTNAVLLLLLCAFFWGASFPVGKHALGEVHALTLVIWRFAIAAACLFAFIKWKRIPIPELKAKQWLWVVGVSIVGVGGLNLGLFTGLAQTNASNGALIMALSPLTTSLIGSLLQRKLLTRGAVFSLVVCLSGVLLVLTNGELKRLLSFEFNHGDQIIFLGMLCWSLYTYLTQGISRWMPMIPYTFIGMLAGLGVISVVAAFSAEAHPVQESLAISQIVLADLLFIGVFGTVGGYLLWISGVKQLGAANASLFFNFVPIFAALTAVTFGQNVASLQLLGMAIVISGLLLPRLTHWRQQRFARMG
protein production: failed

MSDVTGDLAAVSEAKGGSDAARISEVKAWLTSQFEAVGKEVPNFEYTHRSITHLYNLATASQAKSQAATIVANDFRLKASEYRAQAARIREILESAGMSQESLPSNVVSSAQVLANVANLLNIRDTELSRILAQLEDDVVPCESQMENWKTNLEVMAVKEEQYIQQYKKYEMLLNRVGYTPKISHRELVEMAEHRKELDKMTKPVLDTLRSYQDLPPDKALAALAIEDKKRQFTAAEKYLEEVLQSALETNDE
protein production: failed

MTTPAPVPRITVLLPVYNGEQYLREALDSLLTQTYRNFSLLAVDDGSTDSSLEILRSIKDPRLSVKVNPRNRGLINTLNESLDLIQSEYVARMDADDIATPYRLEEQLAFMDAHPDVGLCGGYYERFTDTESIVVRPPTTHEDISYALIFDNVMAHNTVMFRRSVLERYRLRYDPAFAYAEDYELWVRFARYSRLANLPRVLVRYRFHPANTSSRFRHEQQIAAAKIRHIHRTNLGLEPRPGDAALHRQLFDMRFEGDLPELTAAGIWLSKLYRVGVRRCRQNPVSTFLEFNKLWYSACGRLADHGLKVFAQFLRQPFGFLGNPAYTLKLAYRCWRRIRIALEHHHHHH
protein production: failed

MDDVKDKLKGFMKKVNLSSSSGKFKGQGRVLGSSSSSSAPPVNPIQNRFNSSQAPNPTPRPKPNPNPLPEKPLSSSDQKISGSTRNPDHDPVRAPQDGFDPYGAFITSSNRSQNGYSLSMFECPICKNPFTSEEEVSVHVESCLGDTNGDESSFEKDNNDNDKSEMEKLVVVYLSGKPSESSIDVLLRLFKNIVKEPENAKFRKVRMSNAKIKEAIGDVAGGVELLELVGFELKEENDEIWAVMDVPSEEQSILINKVVGYLEKRKTESSGSSAQVMEPVAPKKIDRENGCFLVQIRVFFSVSENVASRIEVPDSFYSLSADEIKREADLRRKKIAESQLLIPRSYKEKQAKAARKRYKRSMIRVQFPDGVVLQGVFAPWEPTFALYEFVSSALKEPSLQFELLDPVLVKRRVIPHTPAPGQKPITLEDEELVPSALIRFRPIETDSLVFTGLRNELLEISEPLS
protein production: failed

MSALLGILGVVLDARFGEPQGWHPLVAFGRLADRLERRFNRSRLAGEADPGVGWRSHGVTAWVLAVLPLTLLAWALAELPYLGWLVQALALYAALGLRSLGEHAEPVALALRAGDLDEARRRVGYLVSRDTRELDQAGVARAATESVLENGSDAVYAALFWFAVAGAPGVVLYRLSNTLDAMWGYRNARFERFGWAAAKIDDILNYLPARLVALTYALLGDTRQALRCWREQAPQWDSPNAGPVMAAGAGALGVFLGGAAIYHGELHQRPLLGSGPQPQGRDIYRALALVRQGVLLWLLVLAGLWAMGWLHA
protein production: failed

MVIPSILEQAHALAGRAVGEGGIAVDATVGNGHDTAFLAQAVGAGGAVVGFDVQEEALVETRHRLEREALSAPVRLVHAGHQTLARHLEEAERGRVGAIMFNLGYLPGGDHSVVTRPETTRQALDAGTEALRPGGVITVVAYTGHEGGDEEADAVEAWASALPQAQFRALSYRFPNWSNDPPRLFAVEKRDALEHHHHHH
protein production: failed

MTLEKKEYGAPGFWPGSMIGRVHAFETPAPLTRAQLDRLRDEFFETRTEGHLEIWTAIRAASHAQEAGDDELAYAIITAVGILPAEVGPAGEGLGERIPFAEQPLDRLLGMICGCCFPAFTRYRTLERVYDQRGFLYETPKECIATPSNVLPDESTEASAR
protein production: not failed

MGHHHHHHSHMNLERLRKRVRQYLDQQQYQSALFWADKVASLSREEPQDIYWLAQCLYLTAQYHRAAHALRSRKLDKLYEACRYLAARCHYAAKEHQQALDVLDMEEPINKRLFEKYLKDESGFKDPSSDW
protein production: failed

MKLFKELEETKEQVIKMAKLVQEAIDKATEALNKQNVELAEEVIKGDDTIDLLEVDIERRCIRMIALYQPEAGDLRMIMGIYKIVSDLERMGDEAENIAERAILLAEEPPLKPYVNINFMSEIVKEMVNDSVISFIQQDTLLAKKVIEKDDTVDELYHQLERELMTYVLEDPRNIKRAMHLSFVARHYERIADHAENVAEAAIYLSEGEIVKHQHIKEKGE
protein production: not failed

MALSSAPILITGASQRVGLHCALRLLEHGHQVIISYRTEHASVAQLRQAGAHTLHGDFSSEASIMAFIEQLKSHTSSLRAIVHNASEWLAETPGDEAENFTRMFSVHMLAPYLINLHCEALLHASDVADIVHISDDVTRKGSSKHIAYCATKAGLESLTLSFAARFAPLVKVNGIAPALLMFQPKDDAAYRANALAKSAMGIEPGAEVIYQSLRYLLDSTYVTGTTLTVNGGRHVK
protein production: failed
